In IntAct's records for PubMed 31515488:

B1: SHC-transforming protein 1 (Homo sapiens), P29353 (parent)
chain: MDLLPPKPKYNPLRNESLSSLEEGASGSTPPEELPSPSASSLGPILPPLPGDDSPTTLCSFFPRMSNLRLANPAGGRPGSKGEPGRAADDGEGIVGAAMPDSGPLPLLQDMNKLSGGGGRRTRVEGGQLGGEEWTRHGSFVNKPTRGWLHPNDKVMGPGVSYLVRYMGCVEVLQSMRALDFNTRTQVTREAISLVCEAVPGAKGATRRRKPCSRPLSSILGRSNLKFAGMPITLTVSTSSLNLMAADCKQIIANHHMQSISFASGGDPDTAEYVAYVAKDPVNQRACHILECPEGLAQDVISTIGQAFELRFKQYLRNPPKLVTPHDRMAGFDGSAWDEEEEEPPDHQYYNDFPGKEPPLGGVVDMRLREGAAPGAARPTAPNAQTPSHLGATLPVGQPVGGDPEVRKQMPPPPPCPGRELFDDPSYVNVQNLDKARQAVGGAGPPNPAINGSAPRDLFDMKPFEDALRVPPPPQSVSMAEQLRGEPWFHGKLSRREAEALLQLNGDFLVRESTTTPGQYVLTGLQSGQPKHLLLVDPEGVVRTKDHRFESVSHLISYHMDNHLPIISAGSELCLQQPVERKL
partner: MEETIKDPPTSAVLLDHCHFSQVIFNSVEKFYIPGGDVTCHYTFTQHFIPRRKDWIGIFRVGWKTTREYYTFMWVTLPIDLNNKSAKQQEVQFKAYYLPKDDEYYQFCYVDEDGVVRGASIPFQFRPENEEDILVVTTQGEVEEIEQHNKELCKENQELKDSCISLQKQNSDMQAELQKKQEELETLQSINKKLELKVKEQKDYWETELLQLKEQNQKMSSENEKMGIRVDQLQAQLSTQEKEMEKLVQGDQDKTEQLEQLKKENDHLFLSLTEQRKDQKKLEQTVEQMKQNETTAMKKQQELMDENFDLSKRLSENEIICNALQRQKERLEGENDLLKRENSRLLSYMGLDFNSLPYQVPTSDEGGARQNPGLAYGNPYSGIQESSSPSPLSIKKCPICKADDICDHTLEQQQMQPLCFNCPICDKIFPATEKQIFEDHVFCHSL
B2: Cytochrome P450 2S1 (Homo sapiens), Q96SQ9 (parent)
chain: MEATGTWALLLALALLLLLTLALSGTRARGHLPPGPTPLPLLGNLLQLRPGALYSGLMRLSKKYGPVFTIYLGPWRPVVVLVGQEAVREALGGQAEEFSGRGTVAMLEGTFDGHGVFFSNGERWRQLRKFTMLALRDLGMGKREGEELIQAEARCLVETFQGTEGRPFDPSLLLAQATSNVVCSLLFGLRFSYEDKEFQAVVRAAGGTLLGVSSQGGQTYEMFSWFLRPLPGPHKQLLHHVSTLAAFTVRQVQQHQGNLDASGPARDLVDAFLLKMAQEEQNPGTEFTNKNMLMTVIYLLFAGTMTVSTTVGYTLLLLMKYPHVQKWVREELNRELGAGQAPSLGDRTRLPYTDAVLHEAQRLLALVPMGIPRTLMRTTRFRGYTLPQGTEVFPLLGSILHDPNIFKHPEEFNPDRFLDADGRFRKHEAFLPFSLGKRVCLGEGLAKAELFLFFTTILQAFSLESPCPPDTLSLKPTVSGLFNIPPAFQLQVRPTDLHSTTQTR
partner: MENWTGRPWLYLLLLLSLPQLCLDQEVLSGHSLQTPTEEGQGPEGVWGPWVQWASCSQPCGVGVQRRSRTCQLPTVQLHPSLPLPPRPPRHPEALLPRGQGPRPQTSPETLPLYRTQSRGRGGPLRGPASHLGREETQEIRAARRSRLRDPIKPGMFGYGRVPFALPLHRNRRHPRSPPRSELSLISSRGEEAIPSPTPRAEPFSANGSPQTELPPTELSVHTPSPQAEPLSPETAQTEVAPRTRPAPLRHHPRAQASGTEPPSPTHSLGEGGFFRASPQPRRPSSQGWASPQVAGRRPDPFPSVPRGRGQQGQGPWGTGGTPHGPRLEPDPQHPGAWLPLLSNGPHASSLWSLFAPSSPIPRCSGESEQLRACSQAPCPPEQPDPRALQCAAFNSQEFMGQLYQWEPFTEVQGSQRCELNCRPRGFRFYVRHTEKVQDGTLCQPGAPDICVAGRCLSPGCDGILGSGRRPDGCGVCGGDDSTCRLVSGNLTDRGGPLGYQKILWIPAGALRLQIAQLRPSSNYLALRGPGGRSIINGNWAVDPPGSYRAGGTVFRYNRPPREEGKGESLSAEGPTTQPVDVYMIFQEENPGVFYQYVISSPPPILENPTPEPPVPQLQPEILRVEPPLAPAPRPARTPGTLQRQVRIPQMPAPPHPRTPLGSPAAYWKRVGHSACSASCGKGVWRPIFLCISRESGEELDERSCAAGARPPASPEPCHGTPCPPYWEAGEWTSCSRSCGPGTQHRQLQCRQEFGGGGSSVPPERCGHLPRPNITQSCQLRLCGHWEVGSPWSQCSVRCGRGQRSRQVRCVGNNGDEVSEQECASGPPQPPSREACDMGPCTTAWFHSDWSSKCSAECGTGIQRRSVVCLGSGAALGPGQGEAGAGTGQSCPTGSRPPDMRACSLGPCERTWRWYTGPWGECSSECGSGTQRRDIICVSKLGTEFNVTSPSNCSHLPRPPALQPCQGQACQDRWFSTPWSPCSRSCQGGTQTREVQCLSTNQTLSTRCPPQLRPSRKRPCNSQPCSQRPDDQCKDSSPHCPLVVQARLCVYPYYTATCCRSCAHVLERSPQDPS
B3: Homeobox protein VENTX (Homo sapiens), O95231 (parent)
chain: MRLSSSPPRGPQQLSSFGSVDWLSQSSCSGPTHTPRPADFSLGSLPGPGQTSGAREPPQAVSIKEAAGSSNLPAPERTMAGLSKEPNTLRAPRVRTAFTMEQVRTLEGVFQHHQYLSPLERKRLAREMQLSEVQIKTWFQNRRMKHKRQMQDPQLHSPFSGSLHAPPAFYSTSSGLANGLQLLCPWAPLSGPQALMLPPGSFWGLCQVAQEALASAGASCCGQPLASHPPTPGRPSLGPALSTGPRGLCAMPQTGDAF
partner: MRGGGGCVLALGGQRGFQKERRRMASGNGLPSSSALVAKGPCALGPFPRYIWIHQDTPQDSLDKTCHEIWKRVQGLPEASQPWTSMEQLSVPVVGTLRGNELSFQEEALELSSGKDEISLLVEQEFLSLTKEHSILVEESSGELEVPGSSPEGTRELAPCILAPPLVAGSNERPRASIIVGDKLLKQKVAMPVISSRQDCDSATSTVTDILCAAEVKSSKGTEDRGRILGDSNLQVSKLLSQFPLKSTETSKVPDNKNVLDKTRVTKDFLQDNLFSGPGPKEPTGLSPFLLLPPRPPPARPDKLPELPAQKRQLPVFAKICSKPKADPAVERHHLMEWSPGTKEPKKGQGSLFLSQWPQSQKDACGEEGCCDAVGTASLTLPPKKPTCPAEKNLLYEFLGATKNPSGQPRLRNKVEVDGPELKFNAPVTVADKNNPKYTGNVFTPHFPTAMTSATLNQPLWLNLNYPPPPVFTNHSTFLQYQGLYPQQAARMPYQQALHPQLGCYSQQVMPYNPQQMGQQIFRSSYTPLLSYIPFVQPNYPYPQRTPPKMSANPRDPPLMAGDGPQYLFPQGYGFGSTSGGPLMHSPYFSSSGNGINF
B4: Protein FAM168A (Homo sapiens), Q92567 (parent)
chain: MNPVYSPVQPGAPYGNPKNMAYTGYPTAYPAAAPAYNPSLYPTNSPSYAPEFQFLHSAYATLLMKQAWPQNSSSCGTEGTFHLPVDTGTENRTYQASSAAFRYTAGTPYKVPPTQSNTAPPPYSPSPNPYQTAMYPIRSAYPQQNLYAQGAYYTQPVYAAQPHVIHHTTVVQPNSIPSAIYPAPVAAPRTNGVAMGMVAGTTMAMSAGTLLTTPQHTAIGAHPVSMPTYRAQGTPAYSYVPPHW
partner: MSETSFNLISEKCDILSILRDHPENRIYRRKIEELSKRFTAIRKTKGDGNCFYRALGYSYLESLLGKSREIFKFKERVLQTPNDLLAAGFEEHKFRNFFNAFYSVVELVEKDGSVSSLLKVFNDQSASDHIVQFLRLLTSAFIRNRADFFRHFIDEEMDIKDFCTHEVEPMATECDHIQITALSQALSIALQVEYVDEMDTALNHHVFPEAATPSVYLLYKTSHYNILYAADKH
B5: Coiled-coil domain-containing protein 33 (Homo sapiens), Q8N5R6-5 (parent)
chain: MGEPGPPSPPAPKAAPGLIDSFSEMNNYRRAMQKMAEDILSLRRQASILEGENRILRSRLAQQEEEEGQGKASEAQNTVSMKQKLLLSELDMKKLRDRVQHLQNELIRKNDREKELLLLYQAQQPQAALLKQYQGKLQKMKALEETVRHQEKVIEKMERVLEDRLQDRSKPPPLNRQQGKPYTGFPMLSASGLPLGSMGENLPVELYSVLLAENAKLRTELDKNRHQQAPIILQQQALPVDPGELGAGGDLTERLQETHGPGHSECTETLPAQDLLSGTSDKFNLLAKLEHAQSRILSLESQLEDSARRWGREKQDLATRLQEQEKGFRHPSNSIIIEQPVSDPPGVAPRGSGGGAGSHRTPKVTGP
partner: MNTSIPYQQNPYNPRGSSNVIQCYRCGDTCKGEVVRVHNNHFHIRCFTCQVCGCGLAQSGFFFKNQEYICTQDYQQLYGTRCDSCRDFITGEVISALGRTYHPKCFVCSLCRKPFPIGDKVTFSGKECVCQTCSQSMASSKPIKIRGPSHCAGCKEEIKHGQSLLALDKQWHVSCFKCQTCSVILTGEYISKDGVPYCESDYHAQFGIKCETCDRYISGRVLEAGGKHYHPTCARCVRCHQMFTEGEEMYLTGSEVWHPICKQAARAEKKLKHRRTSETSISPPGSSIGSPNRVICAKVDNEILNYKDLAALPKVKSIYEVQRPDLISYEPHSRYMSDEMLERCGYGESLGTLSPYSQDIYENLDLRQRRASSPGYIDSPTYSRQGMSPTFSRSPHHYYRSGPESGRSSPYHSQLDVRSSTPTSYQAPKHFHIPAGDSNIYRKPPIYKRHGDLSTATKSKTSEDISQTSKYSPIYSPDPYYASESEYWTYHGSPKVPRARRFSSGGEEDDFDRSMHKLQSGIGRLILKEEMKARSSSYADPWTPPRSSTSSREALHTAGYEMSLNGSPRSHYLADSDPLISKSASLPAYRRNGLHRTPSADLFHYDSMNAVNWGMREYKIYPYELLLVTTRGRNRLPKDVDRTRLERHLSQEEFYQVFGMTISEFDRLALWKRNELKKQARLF

Variants of: B1
Settings: with caco2_human CALCOCO2, Q13137
With R369Q the “effect of a mutation on the interaction” value was “with no effect”.
In the case of M410V, the “effect of a mutation on the interaction” value is reported as “with no effect”.

Variants of: B2
Settings: with atl4_human ADAMTSL4, Q6UY14
For R166H, the “effect of a mutation on the interaction” value was “disrupting interaction strength”.

Variants of: B3
Settings: with ca094_human C1orf94, Q6P1W5
In the case of L42P, the “effect of a mutation on the interaction” value is reported as “with no effect”.
In the case of M251V, the “effect of a mutation on the interaction” value is reported as “with no effect”.
For A226E, the “effect of a mutation on the interaction” value was “with no effect”.

Variants of: B4
Settings: with otub2_human OTUB2, Q96DC9
For P122R, the “effect of a mutation on the interaction” value was “disrupting interaction strength”.

Variants of: B5
Settings: with ablm3_human ABLIM3, O94929
M25V was tested, and the “effect of a mutation on the interaction” value was “with no effect”.
For R30L, the “effect of a mutation on the interaction” value was “with no effect”.
With P203L the “effect of a mutation on the interaction” value was “disrupting interaction strength”.
For G196R, the “effect of a mutation on the interaction” value was “with no effect”.
